Series [1] deals with T1, Y61A9LA.9 (Y61A9LA.9) (Caenorhabditis elegans) (UniProt Q9N312).
T1 sequence: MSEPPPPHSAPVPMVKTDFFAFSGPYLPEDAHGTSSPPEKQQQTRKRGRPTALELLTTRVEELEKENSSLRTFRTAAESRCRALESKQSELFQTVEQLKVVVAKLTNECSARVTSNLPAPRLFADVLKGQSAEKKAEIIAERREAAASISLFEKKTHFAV

Series [2] concerns the target T2, dmd-6 (F13G11.1) (Caenorhabditis elegans) (UniProt O62159).
T2 sequence: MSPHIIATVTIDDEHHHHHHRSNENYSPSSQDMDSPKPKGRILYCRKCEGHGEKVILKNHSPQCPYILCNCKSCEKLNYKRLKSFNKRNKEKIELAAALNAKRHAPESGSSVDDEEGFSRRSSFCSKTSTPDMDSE

Series [3] addresses T3, pax-2 (K06B9.5) (Caenorhabditis elegans) (UniProt Q21263).
T3 sequence: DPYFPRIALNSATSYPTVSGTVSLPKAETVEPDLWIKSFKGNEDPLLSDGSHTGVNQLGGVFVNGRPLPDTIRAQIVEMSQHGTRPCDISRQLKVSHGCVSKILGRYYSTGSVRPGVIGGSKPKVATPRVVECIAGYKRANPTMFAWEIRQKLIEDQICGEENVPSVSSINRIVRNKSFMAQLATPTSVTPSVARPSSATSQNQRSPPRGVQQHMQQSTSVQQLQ

The target of series [4] is T4, ceh-51 (Y80D3A.3) (Caenorhabditis elegans) (UniProt Q9U1R1).
T4 sequence: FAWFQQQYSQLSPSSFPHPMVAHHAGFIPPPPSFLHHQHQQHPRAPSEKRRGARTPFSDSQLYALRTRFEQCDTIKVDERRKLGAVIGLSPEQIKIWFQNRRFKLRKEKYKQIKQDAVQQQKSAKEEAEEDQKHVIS

The target of series [5] is T5, ceh-52 (C07E3.5) (Caenorhabditis elegans) (UniProt Q17788).
T5 sequence: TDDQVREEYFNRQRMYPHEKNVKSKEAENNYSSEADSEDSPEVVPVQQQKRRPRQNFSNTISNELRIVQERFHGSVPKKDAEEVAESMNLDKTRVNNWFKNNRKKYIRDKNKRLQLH

The target in series [6] is T6, tbx-43 (Y46E12A.4) (Caenorhabditis elegans) (UniProt Q1T6W8).
T6 sequence: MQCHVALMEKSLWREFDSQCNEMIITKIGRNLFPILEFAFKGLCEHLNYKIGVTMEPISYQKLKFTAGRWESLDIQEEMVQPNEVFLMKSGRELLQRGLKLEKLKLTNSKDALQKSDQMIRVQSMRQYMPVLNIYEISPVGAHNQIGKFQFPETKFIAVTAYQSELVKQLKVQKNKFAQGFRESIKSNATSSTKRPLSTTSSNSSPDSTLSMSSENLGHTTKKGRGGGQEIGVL

The target in series [7] is T7, tbx-38 (C24H11.3) (Caenorhabditis elegans) (UniProt Q9XVD5).
T7 sequence: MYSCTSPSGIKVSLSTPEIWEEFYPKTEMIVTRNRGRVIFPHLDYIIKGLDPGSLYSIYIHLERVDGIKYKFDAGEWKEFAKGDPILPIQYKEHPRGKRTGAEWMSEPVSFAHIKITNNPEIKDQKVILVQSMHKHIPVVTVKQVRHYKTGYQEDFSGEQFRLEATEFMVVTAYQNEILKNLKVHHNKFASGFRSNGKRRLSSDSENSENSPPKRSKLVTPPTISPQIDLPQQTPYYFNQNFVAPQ

Sequence “AAAATAAT (double strand) [8-mer AAAATAAT]” displayed a binding signal (PBM E-score (-0.5 to 0.5)) in series [1] of 0.451.
On the same count and under the same terms, next, “AAATAAAT (double strand) [8-mer AAATAAAT]”: 0.452.
In series [1], “AAATAATT (double strand) [8-mer AAATAATT]” showed a binding signal (PBM E-score (-0.5 to 0.5)) of 0.457.
“AAATATAT (double strand) [8-mer AAATATAT]”: the binding signal (PBM E-score (-0.5 to 0.5)) in series [1] is 0.452; in series [2], 0.48.
Sequence “AATAATAA (double strand) [8-mer AATAATAA]” had a binding signal (PBM E-score (-0.5 to 0.5)) in series [1] of 0.461.
Still for that read-out and setting: the figure for “AATATATT (double strand) [8-mer AATATATT]” is 0.465; for “AATATTAA (double strand) [8-mer AATATTAA]” it is 0.455.
Regarding “ACCATGAC (double strand) [8-mer ACCATGAC]”, the binding signal (PBM E-score (-0.5 to 0.5)) in series [3] was determined as 0.454.
Same read-out and setting: the figure for “ACCGTGAC (double strand) [8-mer ACCGTGAC]” is 0.495.
Still for that read-out and setting: next, “AGCGTGAC (double strand) [8-mer AGCGTGAC]”: 0.488.
For the sequence “ATATTAAT (double strand) [8-mer ATATTAAT]”, the binding signal (PBM E-score (-0.5 to 0.5)) in series [1] is 0.453; in series [4] it was 0.467.
Turning to “CCGTGACC (double strand) [8-mer CCGTGACC]”, the binding signal (PBM E-score (-0.5 to 0.5)) in series [3] stood at 0.484.
On the same count and under the same terms, the figure for “CCGTGACG (double strand) [8-mer CCGTGACG]” is 0.489.
Same read-out and setting: the figure for “CGGTCACG (double strand) [8-mer CGGTCACG]” is 0.473.
For the sequence “CGTCACGC (double strand) [8-mer CGTCACGC]”, the binding signal (PBM E-score (-0.5 to 0.5)) in series [3] stood at 0.488.
As to “CGTGACCA (double strand) [8-mer CGTGACCA]”, the binding signal (PBM E-score (-0.5 to 0.5)) in series [3] came out at 0.479.
The same measure, in the same setting: next, “CGTGACGA (double strand) [8-mer CGTGACGA]”: 0.461.
Still for that read-out and setting: the figure for “GCGTGACC (double strand) [8-mer GCGTGACC]” is 0.486; for “GGCGTGAC (double strand) [8-mer GGCGTGAC]” it is 0.468.
For “GGGAGTTA (double strand) [8-mer GGGAGTTA]”, the binding signal (PBM E-score (-0.5 to 0.5)) in series [5] came to 0.459.
The same measure, in the same setting: the figure for “GGGGTTAA (double strand) [8-mer GGGGTTAA]” is 0.454.
Turning to “GGTGTTAA (double strand) [8-mer GGTGTTAA]”, the binding signal (PBM E-score (-0.5 to 0.5)) in series [6] was determined as 0.492; in series [7], 0.488; in series [5], 0.459.
The sequence “GTCACGCA (double strand) [8-mer GTCACGCA]” yielded a binding signal (PBM E-score (-0.5 to 0.5)) in series [3] of 0.481.
Same read-out and setting: next, “GTCACGGA (double strand) [8-mer GTCACGGA]”: 0.453.
Take “TAAAATAA (double strand) [8-mer TAAAATAA]”: the binding signal (PBM E-score (-0.5 to 0.5)) in series [1] was determined as 0.453.
“TAACTCCA (double strand) [8-mer TAACTCCA]” gave a binding signal (PBM E-score (-0.5 to 0.5)) in series [5] of 0.475.
The same measure, in the same setting: next, “TAACTCTA (double strand) [8-mer TAACTCTA]”: 0.459.
